This assay addresses unlabeled actin filaments (chicken skeletal muscle actin) (chicken) (UniProt P68139). The experiment in a line: other fluorescence titration.

The values below come from article PMC3711486.

As for “S. pombe Arp2/3 complex labeled with pyrene (pyrenyl-Arp2/3 complex) (from UniProt Q9UUJ1 1-390; O14241 1-317; Q92352 1-168)”, the KDR with filaments 10% saturated with cofilin is 0.66 µM, the KDR with filaments 20% saturated with cofilin was found to be 0.87 µM, the KDR with filaments 30% saturated with cofilin came out at 1.5 µM and the KDR with filaments 45% saturated with cofilin is 2.5 µM. The percent of Arp2/3 complex bound, filaments more than 80% saturated with cofilin was found to be 5%.
